Our source for the Kd, koff and kon values is patent US20250195685A1 (CAPSTAN THERAPEUTICS, published 2025).

Assay [1] concerns the target T1, human CD8αα homodimer, recombinant protein (Acro Biosystems) (human, UniProt P01732 22-182).
T1 construct: also called CD8αα antigen; biotinylated CD8α recombinant protein (CDA-H82E3)
In words: BLI kinetics, F(ab) on biotinylated CD8α (SA-XT sensor), 1:1 fit, 37 °C [CONT'ED]. How it is done:
(§1) Biolayer interferometry kinetic assays were performed using a GatorBio Gator Plus BLI system. Kinetic buffer containing PBS plus 0.1% Tween 20 and 0.2% BSA was used for calculating the baseline. To measure the binding kinetics of anti-CD8α antibody fragment (Fab), streptavidin-immobilized SA-XT sensors (#160029, Gator Bio) were prehydrated in the kinetic buffer and loaded with […] biotinylated CD8α recombinant protein (CDA-H82E3, Acro Biosystems) at a spin speed of 400 rpm to a threshold response of 10 nm. The sensors were then incubated in the kinetic buffer for 300 s to acquire a baseline measurement prior to each association. […] The antigen-loaded sensors were incubated in the diluted solutions to capture Fab fragments for 300 s to record the association phase. Sensors were finally incubated in the kinetic buffer for 900 s to record the dissociation phase. The spin speed for all steps except the antigen loading step was 1000 rpm. The temperature of the performed assays was either 30° C. or 37° C. during the association and dissociation phases. Sensor data were baseline subtracted, and global curve fitting of the kinetic data from six different analyte concentrations at a 1:1 monovalent binding model was performed using GatorOne software (version v2.10) to determine kinetic rate constants (kₒₙ and koff) and equilibrium dissociation constants (KD) of the analyzed antibodies.
Background: In BLI a coated tip is dipped into the sample, and binding shifts an interference pattern.

In assay [2] the target is T1, human CD8αα homodimer, recombinant …. In words: BLI kinetics, F(ab) on biotinylated CD8α (SA-XT sensor), 1:1 fit, 30 °C. The procedure:
as §1

The target is the same in assay [3]. In words: BLI kinetic rate analysis, Fab fragment (temperature not given). The procedure:
as §1

T1 sequence (P01732 22-182 limits assumed): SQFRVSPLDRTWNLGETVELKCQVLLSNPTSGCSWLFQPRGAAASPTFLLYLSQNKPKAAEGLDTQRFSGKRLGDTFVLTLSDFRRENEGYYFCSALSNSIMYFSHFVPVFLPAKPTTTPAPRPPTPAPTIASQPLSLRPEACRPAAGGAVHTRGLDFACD

B1: CBD1032 (Fab, V domains shown)
VH: QVQLVQSGAEVKKPGASVKVSCKASRYTFTDYNLHWVRQAPGQGLEWMGFIYPYNGGTGYAQKFQGRVTMTRDTSTSTVYMELSSLRSEDTAVYYCARDHRYNEGVSFDYWGQGTTVTVSS
VL: DIQMTQSPSSLSASVGDRVTITCRASESVDGFGNSFMNWYQQKPGKAPKLLIYLASNLESGVPSRFSGSGSGTDFTLTISSLQPEDFATYYCQQNNEDPYTFGQGTKLEIK
notes: also called h1017-H1/L1 F(ab)
With B1, in assay [1], the dissociation constant Kd (as a rule, the free concentration of one partner at which half of the binding sites on the other are occupied at equilibrium, for simple one-to-one binding) is 1.59 nM; the koff (commonly a measure of how fast the partners let go of each other) came out at 5.35e-05 s⁻¹; the kon – broadly, the second-order rate constant of association – came to 33700 M⁻¹ s⁻¹. Further, in assay [2], the dissociation constant Kd is 1.84 nM, the off-rate constant (koff) was 9.45e-05 s⁻¹ and the association rate constant (kon) came to 51500 M⁻¹ s⁻¹.

B2: CBD1039 (Fab, V domains shown)
VH: QVQLVQSGAEVKKPGASVKISCKASRYTFTDYNLHWVRQAPGQGLEWIGFIYPYNGGTGYAQKFQGRATLTVDYSTSTAYMELSSLRSEDTAVYYCARDHRYNEGVSFDYWGQGTTLTVSS
VL: DIQLTQSPSSLSASVGDRATITCRASESVDGFGNSFMNWYQQKPGKAPKLLIYLASNLESGVPSRFSGSGSGTDFTLTISSVQPEDFATYYCQQNNEDPYTFGQGTKLEIK
notes: also called h1017-H5/L2 F(ab)
Turning to B2, in assay [1], the Kd was 4.59 nM, the koff came to 9.27e-05 s⁻¹ and the kon turned out to be 20200 M⁻¹ s⁻¹. Besides, in assay [2], the Kd worked out at 3.11 nM, the koff amounted to 0.000157 s⁻¹ and the on-rate constant (kon) amounted to 50400 M⁻¹ s⁻¹.

B3: CBD1037 (Fab, V domains shown)
VH: QVQLVQSGAEVKKPGASVKVSCKASRYTFTDYNLHWVRQAPGQGLEWMGFIYPYNGGTGYAQKFQGRVTMTVDYSTSTAYMELSSLRSEDTAVYYCARDHRYNEGVSFDYWGQGTTVTVSS
VL: DIQLTQSPSSLSASVGDRATITCRASESVDGFGNSFMNWYQQKPGKAPKLLIYLASNLESGVPSRFSGSGSGTDFTLTISSVQPEDFATYYCQQNNEDPYTFGQGTKLEIK
notes: also called h1017-H4/L2 F(ab)
Consider B3, for which, in assay [1], the Kd amounted to 1.27 nM, the koff was 9.71e-05 s⁻¹ and the on-rate constant (kon) came out at 76800 M⁻¹ s⁻¹. In assay [2], the Kd was 1.72 nM, the koff amounted to 0.000114 s⁻¹ and the kon was determined as 66000 M⁻¹ s⁻¹.

B4: CBD1034 (Fab, V domains shown)
VH: QVQLVQSGAEVKKPGASVKVSCKASRYTFTDYNLHWVRQAPGQGLEWMGFIYPYNGGTGYAQKFQGRVTMTVDTSTSTAYMELSSLRSEDTAVYYCARDHRYNEGVSFDYWGQGTTVTVSS
VL: DIQLTQSPSSLSASVGDRATITCRASESVDGFGNSFMNWYQQKPGKAPKLLIYLASNLESGVPSRFSGSGSRTDFTLTISSVQPEDFATYYCQQNNEDPYTFGQGTKLEIK
notes: also called h1017-H2/L3 F(ab)
For B4, in assay [1], the equilibrium dissociation constant (Kd) is 1.82 nM, the off-rate (koff) stood at 0.000187 s⁻¹ and the kon was determined as 103000 M⁻¹ s⁻¹. Further, in assay [2], the dissociation constant (Kd) amounted to 9.9 nM, the koff is 0.000204 s⁻¹ and the kon turned out to be 20900 M⁻¹ s⁻¹.

B5: CBD1040 (Fab, V domains shown)
VH: QVQLVQSGAEVKKPGASVKISCKASRYTFTDYNLHWVRQAPGQGLEWIGFIYPYNGGTGYAQKFQGRATLTVDYSTSTAYMELSSLRSEDTAVYYCARDHRYNEGVSFDYWGQGTTLTVSS
VL: DIQLTQSPSSLSASVGDRATITCRASESVDGFGNSFMNWYQQKPGKAPKLLIYLASNLESGVPSRFSGSGSRTDFTLTISSVQPEDFATYYCQQNNEDPYTFGQGTKLEIK
notes: also called h1017-H5/L3 F(ab)
For B5, in assay [1], the Kd was 7.39 nM, the off-rate constant (koff) turned out to be 0.000103 s⁻¹ and the on-rate constant (kon) came to 14000 M⁻¹ s⁻¹. For the same molecule, in assay [2], the Kd came out at 6.07 nM, the koff was determined as 0.00017 s⁻¹ and the kon turned out to be 28000 M⁻¹ s⁻¹.

B6: CBD1038 (Fab, V domains shown)
VH: QVQLVQSGAEVKKPGASVKVSCKASRYTFTDYNLHWVRQAPGQGLEWMGFIYPYNGGTGYAQKFQGRVTMTVDYSTSTAYMELSSLRSEDTAVYYCARDHRYNEGVSFDYWGQGTTVTVSS
VL: DIQLTQSPSSLSASVGDRATITCRASESVDGFGNSFMNWYQQKPGKAPKLLIYLASNLESGVPSRFSGSGSRTDFTLTISSVQPEDFATYYCQQNNEDPYTFGQGTKLEIK
notes: also called h1017-H4/L3 F(ab)
Regarding B6, in assay [1], the Kd is 7.42 nM, the koff was determined as 0.00014 s⁻¹ and the kon was determined as 18900 M⁻¹ s⁻¹. Further, in assay [2], the dissociation constant (Kd) is 2.31 nM, the koff came out at 0.000146 s⁻¹ and the kon is 63300 M⁻¹ s⁻¹.

B7: CBD1381 (Fab, V domains shown)
VH: QVQLVQSGAEVKKPGASVKVSCKASRYTFTDYNLHWVRQAPGQGLEWMGFIYPYQGGTGYAQKFQGRVTMTVDTSTSTAYMELSSLRSEDTAVYYCARDHRYNEGVSFDYWGQGTTVTVSS
VL: DIQLTQSPSSLSASVGDRATITCRASESVDGFGNSFMNWYQQKPGKAPKLLIYLASNLESGVPSRFSGSGSGTDFTLTISSVQPEDFATYYCQQNNEDPYTFGQGTKLEIK
On to B7, for which, in assay [3], the dissociation constant (Kd) came to 1.22 nM, the koff was determined as 9.59e-05 s⁻¹ and the association rate constant (kon) was found to be 78600 M⁻¹ s⁻¹.

B8: CBD1380 (Fab, V domains shown)
VH: QVQLVQSGAEVKKPGASVKVSCKASRYTFTDYNLHWVRQAPGQGLEWMGFIYPYSGGTGYAQKFQGRVTMTVDTSTSTAYMELSSLRSEDTAVYYCARDHRYNEGVSFDYWGQGTTVTVSS
VL: DIQLTQSPSSLSASVGDRATITCRASESVDGFGNSFMNWYQQKPGKAPKLLIYLASNLESGVPSRFSGSGSGTDFTLTISSVQPEDFATYYCQQNNEDPYTFGQGTKLEIK
For the molecule B8, in assay [3], the Kd came to 1.93 nM, the koff turned out to be 0.000116 s⁻¹ and the on-rate constant (kon) worked out at 59900 M⁻¹ s⁻¹.

B9: CBD1382 (Fab, V domains shown)
VH: QVQLVQSGAEVKKPGASVKVSCKASRYTFTDYNLHWVRQAPGQGLEWMGFIYPYAGGTGYAQKFQGRVTMTVDTSTSTAYMELSSLRSEDTAVYYCARDHRYNEGVSFDYWGQGTTVTVSS
VL: DIQLTQSPSSLSASVGDRATITCRASESVDGFGNSFMNWYQQKPGKAPKLLIYLASNLESGVPSRFSGSGSGTDFTLTISSVQPEDFATYYCQQNNEDPYTFGQGTKLEIK
Regarding B9, in assay [3], the equilibrium dissociation constant (Kd) is 0.86 nM, the off-rate constant (koff) came out at 6.91e-05 s⁻¹ and the on-rate (kon) stood at 80300 M⁻¹ s⁻¹.

B10: CBD1444 Fab (VL D30S of CBD1033) (Fab, V domains shown)
VH: QVQLVQSGAEVKKPGASVKVSCKASRYTFTDYNLHWVRQAPGQGLEWMGFIYPYNGGTGYAQKFQGRVTMTVDTSTSTAYMELSSLRSEDTAVYYCARDHRYNEGVSFDYWGQGTTVTVSS
VL: DIQLTQSPSSLSASVGDRATITCRASESVSGFGNSFMNWYQQKPGKAPKLLIYLASNLESGVPSRFSGSGSGTDFTLTISSVQPEDFATYYCQQNNEDPYTFGQGTKLEIK
Turning to B10, in assay [3], the dissociation constant (Kd) amounted to 7.69 nM, the koff is 0.000196 s⁻¹ and the kon turned out to be 25500 M⁻¹ s⁻¹.

B11: CBD1443 Fab (VL D30E of CBD1033) (Fab, V domains shown)
VH: QVQLVQSGAEVKKPGASVKVSCKASRYTFTDYNLHWVRQAPGQGLEWMGFIYPYNGGTGYAQKFQGRVTMTVDTSTSTAYMELSSLRSEDTAVYYCARDHRYNEGVSFDYWGQGTTVTVSS
VL: DIQLTQSPSSLSASVGDRATITCRASESVEGFGNSFMNWYQQKPGKAPKLLIYLASNLESGVPSRFSGSGSGTDFTLTISSVQPEDFATYYCQQNNEDPYTFGQGTKLEIK
With B11, in assay [3], the Kd was determined as 10 nM, the koff worked out at 0.000284 s⁻¹ and the kon is 28400 M⁻¹ s⁻¹.

B12: CBD1035 (Fab, V domains shown)
VH: QVQLVQSGAEVKKPGASVKISCKASRYTFTDYNLHWVRQAPGQGLEWIGFIYPYNGGTGYAQKFQGRATLTVDTSTSTAYMELSSLRSEDTAVYYCARDHRYNEGVSFDYWGQGTTLTVSS
VL: DIQLTQSPSSLSASVGDRATITCRASESVDGFGNSFMNWYQQKPGKAPKLLIYLASNLESGVPSRFSGSGSGTDFTLTISSVQPEDFATYYCQQNNEDPYTFGQGTKLEIK
notes: also called h1017-H3/L2 F(ab)
Take B12: in assay [1], the Kd turned out to be 8.02 nM, the off-rate constant (koff) was found to be 9.12e-05 s⁻¹ and the on-rate (kon) stood at 11400 M⁻¹ s⁻¹. In assay [2], the Kd came to 3.07 nM, the koff came to 0.000144 s⁻¹ and the kon stood at 46900 M⁻¹ s⁻¹.

B13: CBD1036 (Fab, V domains shown)
VH: QVQLVQSGAEVKKPGASVKISCKASRYTFTDYNLHWVRQAPGQGLEWIGFIYPYNGGTGYAQKFQGRATLTVDTSTSTAYMELSSLRSEDTAVYYCARDHRYNEGVSFDYWGQGTTLTVSS
VL: DIQLTQSPSSLSASVGDRATITCRASESVDGFGNSFMNWYQQKPGKAPKLLIYLASNLESGVPSRFSGSGSRTDFTLTISSVQPEDFATYYCQQNNEDPYTFGQGTKLEIK
notes: also called h1017-H3/L3 F(ab)
Consider B13, for which, in assay [1], the Kd amounted to 1.68 nM, the koff turned out to be 0.000194 s⁻¹ and the association rate constant (kon) was found to be 117000 M⁻¹ s⁻¹. Moreover, in assay [2], the dissociation constant Kd is 6.16 nM, the koff is 0.000207 s⁻¹ and the kon was 33700 M⁻¹ s⁻¹.

B14: CDB1017p (Fab, V domains shown)
VH: EVQLQQSGPELVKPGASVKISCKASRYTFTDYNLHWVKLSHEKSLEWIGFIYPYNGGTGYNQKFKNKAKLTVDYSSSTAYMELRSLTSVDAAVYYCARDHRYNEGVSFDYWGQGTTLTVSS
VL: NIVLTQSPASLAVSLGQRATISCRASESVDGFGNSFMNWYQQKPGQSPKLLIYLASNLESGVPARFSGSGSRTDFTLTIDPVEADDAATYYCQQNNEDPYTFGGGTKLEIK
notes: CDB1017p [sic]; also called CBD1017p; mouse CT8 F(ab)
For B14, in assay [2], the Kd was 1.19 nM, the koff worked out at 7.76e-05 s⁻¹ and the kon came out at 65100 M⁻¹ s⁻¹.
